Experimental data from patent US20220048967A1 (published 2022).
Residue numbers refer to the chain shown, from its start. Numbered stars: 1 amine (or outer) side, 2 acyl side, 3 side chain; on linkers, the order of the positions; unused ones are H or OH. Square brackets hold non-standard residues; d marks the D form. Side chains are listed from the residue outwards. Ends that are not written are not given here. * marks the point of attachment. C20 diacid = O=C(O)CCCCCCCCCCCCCCCCCCC(=O)*; γGlu = O=C(O)[C@H](CCC(=O)[*:2])N[*:1]; αMeP = C[C@@]1(C(=O)O)CCCN1; AEEA = NCCOCCOCC(=O)O

B1: Example 196 (peptide)
peptide: Y[αMeP]EGTFTSDYSILLDRK([AEEA-AEEA-γGlu-C20 diacid])AQHAFIEYLIEGGPSSGAPPPS-NH2
modifications: N-terminus assumed
SMILES: CC[C@H](C)[C@H](NC(=O)[C@H](CC(C)C)NC(=O)[C@H](Cc1ccc(O)cc1)NC(=O)[C@H](CCC(=O)O)NC(=O)[C@@H](NC(=O)[C@H](Cc1ccccc1)NC(=O)[C@H](C)NC(=O)[C@H](Cc1c[nH]cn1)NC(=O)[C@H](CCC(N)=O)NC(=O)[C@H](C)NC(=O)[C@H](CCCCNC(=O)COCCOCCNC(=O)COCCOCCNC(=O)CC[C@H](NC(=O)CCCCCCCCCCCCCCCCCCC(=O)O)C(=O)O)NC(=O)[C@H](CCCNC(=N)N)NC(=O)[C@H](CC(=O)O)NC(=O)[C@H](CC(C)C)NC(=O)[C@H](CC(C)C)NC(=O)[C@@H](NC(=O)[C@H](CO)NC(=O)[C@H](Cc1ccc(O)cc1)NC(=O)[C@H](CC(=O)O)NC(=O)[C@H](CO)NC(=O)[C@@H](NC(=O)[C@H](Cc1ccccc1)NC(=O)[C@@H](NC(=O)CNC(=O)[C@H](CCC(=O)O)NC(=O)[C@]1(C)CCCN1C(=O)[C@@H](N)Cc1ccc(O)cc1)[C@@H](C)O)[C@@H](C)O)[C@@H](C)CC)[C@@H](C)CC)C(=O)N[C@@H](CCC(=O)O)C(=O)NCC(=O)NCC(=O)N1CCC[C@H]1C(=O)N[C@@H](CO)C(=O)N[C@@H](CO)C(=O)NCC(=O)N[C@@H](C)C(=O)N1CCC[C@H]1C(=O)N1CCC[C@H]1C(=O)N1CCC[C@H]1C(=O)N[C@@H](CO)C(N)=O
B2: Example 185 (peptide)
peptide: YXEGTXTSDXSIXLDEKAQXEFIXYLIEGGPSSGAPPPS
modifications: Y-Aib-EGT-αMeF(2F)-TSD-(D-His)-SI-αMeF-LDEK((2-[2-(2-Amino-ethoxy)-ethoxy]-acetyl)2-(γ-Glu)-CO-(CH2)18-CO2H)AQ-Aib-EFI-(D-Glu)-YLIEGGPSSGAPPPS-NH2
B3: Example 188 (peptide)
peptide: B2 peptide
modifications: Y-Aib-EGT-αMeF(2F)-TSD-3Pal-SI-αMeF-LDEK((2-[2-(2-Amino-ethoxy)-ethoxy]-acetyl)2-(γ-Glu)-CO-(CH2)18-CO2H)AQ-Aib-EFI-Aib-YLIEGGPSSGAPPPS-NH2
B4: Example 189 (peptide)
peptide: B2 peptide
modifications: Y-Aib-EGT-αMeF(2F)-TSD-4Pal-SI-αMeF-LDEK((2-[2-(2-Amino-ethoxy)-ethoxy]-acetyl)2-(γ-Glu)-CO-(CH2)18-CO2H)AQ-Aib-EFI-Aib-YLIEGGPSSGAPPPS-NH2
B5: Example 192 (peptide)
peptide: B2 peptide with X10A
modifications: Y-Aib-EGT-αMeF(2F)-TSDASI-αMeF-LDEK((2-[2-(2-Amino-ethoxy)-ethoxy]-acetyl)2-(γ-Glu)-CO-(CH2)18-CO2H)AQ-Aib-EFI-(D-Glu)-YLIEGGPSSGAPPPS-NH2
B6: Example 191 (peptide)
peptide: B2 peptide with X10V
modifications: Y-Aib-EGT-αMeF(2F)-TSDVSI-αMeF-LDEK((2-[2-(2-Amino-ethoxy)-ethoxy]-acetyl)2-(γ-Glu)-CO-(CH2)18-CO2H)AQ-Aib-EFI-(D-Glu)-YLIEGGPSSGAPPPS-NH2
B7: Example 190 (peptide)
peptide: B2 peptide with Y1H
modifications: H-Aib-EGT-αMeF(2F)-TSD-3Pal-SI-αMeF-LDEK((2-[2-(2-Amino-ethoxy)-ethoxy]-acetyl)2-(γ-Glu)-CO-(CH2)18-CO2H)AQ-Aib-EFI-(D-Glu)-YLIEGGPSSGAPPPS-NH2
B8: Example 187 (peptide)
peptide: B2 peptide with X10Q
modifications: Y-Aib-EGT-αMeF(2F)-TSDQSI-αMeF-LDEK((2-[2-(2-Amino-ethoxy)-ethoxy]-acetyl)2-(γ-Glu)-CO-(CH2)18-CO2H)AQ-Aib-EFI-(D-Glu)-YLIEGGPSSGAPPPS-NH2
B9: Example 195 (peptide)
peptide: Y[αMeP]EGTFTSDYSILLDRK([AEEA-AEEA-γGlu-C20 diacid])AQQAFIEYLIEGGPSSGAPPPS-NH2
modifications: N-terminus assumed
SMILES: CC[C@H](C)[C@H](NC(=O)[C@H](CC(C)C)NC(=O)[C@H](Cc1ccc(O)cc1)NC(=O)[C@H](CCC(=O)O)NC(=O)[C@@H](NC(=O)[C@H](Cc1ccccc1)NC(=O)[C@H](C)NC(=O)[C@H](CCC(N)=O)NC(=O)[C@H](CCC(N)=O)NC(=O)[C@H](C)NC(=O)[C@H](CCCCNC(=O)COCCOCCNC(=O)COCCOCCNC(=O)CC[C@H](NC(=O)CCCCCCCCCCCCCCCCCCC(=O)O)C(=O)O)NC(=O)[C@H](CCCNC(=N)N)NC(=O)[C@H](CC(=O)O)NC(=O)[C@H](CC(C)C)NC(=O)[C@H](CC(C)C)NC(=O)[C@@H](NC(=O)[C@H](CO)NC(=O)[C@H](Cc1ccc(O)cc1)NC(=O)[C@H](CC(=O)O)NC(=O)[C@H](CO)NC(=O)[C@@H](NC(=O)[C@H](Cc1ccccc1)NC(=O)[C@@H](NC(=O)CNC(=O)[C@H](CCC(=O)O)NC(=O)[C@]1(C)CCCN1C(=O)[C@@H](N)Cc1ccc(O)cc1)[C@@H](C)O)[C@@H](C)O)[C@@H](C)CC)[C@@H](C)CC)C(=O)N[C@@H](CCC(=O)O)C(=O)NCC(=O)NCC(=O)N1CCC[C@H]1C(=O)N[C@@H](CO)C(=O)N[C@@H](CO)C(=O)NCC(=O)N[C@@H](C)C(=O)N1CCC[C@H]1C(=O)N1CCC[C@H]1C(=O)N1CCC[C@H]1C(=O)N[C@@H](CO)C(N)=O
B10: Example 194 (peptide)
peptide: Y[αMeP]EGTFTSDYSILLDEK([AEEA-AEEA-γGlu-C20 diacid])AQHAFIEYLIEGGPSSGAPPPS-NH2
modifications: N-terminus assumed
SMILES: CC[C@H](C)[C@H](NC(=O)[C@H](CC(C)C)NC(=O)[C@H](Cc1ccc(O)cc1)NC(=O)[C@H](CCC(=O)O)NC(=O)[C@@H](NC(=O)[C@H](Cc1ccccc1)NC(=O)[C@H](C)NC(=O)[C@H](Cc1c[nH]cn1)NC(=O)[C@H](CCC(N)=O)NC(=O)[C@H](C)NC(=O)[C@H](CCCCNC(=O)COCCOCCNC(=O)COCCOCCNC(=O)CC[C@H](NC(=O)CCCCCCCCCCCCCCCCCCC(=O)O)C(=O)O)NC(=O)[C@H](CCC(=O)O)NC(=O)[C@H](CC(=O)O)NC(=O)[C@H](CC(C)C)NC(=O)[C@H](CC(C)C)NC(=O)[C@@H](NC(=O)[C@H](CO)NC(=O)[C@H](Cc1ccc(O)cc1)NC(=O)[C@H](CC(=O)O)NC(=O)[C@H](CO)NC(=O)[C@@H](NC(=O)[C@H](Cc1ccccc1)NC(=O)[C@@H](NC(=O)CNC(=O)[C@H](CCC(=O)O)NC(=O)[C@]1(C)CCCN1C(=O)[C@@H](N)Cc1ccc(O)cc1)[C@@H](C)O)[C@@H](C)O)[C@@H](C)CC)[C@@H](C)CC)C(=O)N[C@@H](CCC(=O)O)C(=O)NCC(=O)NCC(=O)N1CCC[C@H]1C(=O)N[C@@H](CO)C(=O)N[C@@H](CO)C(=O)NCC(=O)N[C@@H](C)C(=O)N1CCC[C@H]1C(=O)N1CCC[C@H]1C(=O)N1CCC[C@H]1C(=O)N[C@@H](CO)C(N)=O
B11: Example 193 (peptide)
peptide: Y[αMeP]EGTFTSDYSILLDEK([AEEA-AEEA-γGlu-C20 diacid])AQQAFIEYLIEGGPSSGAPPPS-NH2
modifications: N-terminus assumed
SMILES: CC[C@H](C)[C@H](NC(=O)[C@H](CC(C)C)NC(=O)[C@H](Cc1ccc(O)cc1)NC(=O)[C@H](CCC(=O)O)NC(=O)[C@@H](NC(=O)[C@H](Cc1ccccc1)NC(=O)[C@H](C)NC(=O)[C@H](CCC(N)=O)NC(=O)[C@H](CCC(N)=O)NC(=O)[C@H](C)NC(=O)[C@H](CCCCNC(=O)COCCOCCNC(=O)COCCOCCNC(=O)CC[C@H](NC(=O)CCCCCCCCCCCCCCCCCCC(=O)O)C(=O)O)NC(=O)[C@H](CCC(=O)O)NC(=O)[C@H](CC(=O)O)NC(=O)[C@H](CC(C)C)NC(=O)[C@H](CC(C)C)NC(=O)[C@@H](NC(=O)[C@H](CO)NC(=O)[C@H](Cc1ccc(O)cc1)NC(=O)[C@H](CC(=O)O)NC(=O)[C@H](CO)NC(=O)[C@@H](NC(=O)[C@H](Cc1ccccc1)NC(=O)[C@@H](NC(=O)CNC(=O)[C@H](CCC(=O)O)NC(=O)[C@]1(C)CCCN1C(=O)[C@@H](N)Cc1ccc(O)cc1)[C@@H](C)O)[C@@H](C)O)[C@@H](C)CC)[C@@H](C)CC)C(=O)N[C@@H](CCC(=O)O)C(=O)NCC(=O)NCC(=O)N1CCC[C@H]1C(=O)N[C@@H](CO)C(=O)N[C@@H](CO)C(=O)NCC(=O)N[C@@H](C)C(=O)N1CCC[C@H]1C(=O)N1CCC[C@H]1C(=O)N1CCC[C@H]1C(=O)N[C@@H](CO)C(N)=O

Legend:
[1] = target: human GLP-1 receptor (GLP-1R) (human, UniProt P43220 24-463); experiment: cell-based or functional assay
[2] = target: T1, human gastric inhibitory peptide receptor (GIPR) (human, UniProt P48546 22-466); experiment: cell-based or functional assay
T1 sequence (looked up): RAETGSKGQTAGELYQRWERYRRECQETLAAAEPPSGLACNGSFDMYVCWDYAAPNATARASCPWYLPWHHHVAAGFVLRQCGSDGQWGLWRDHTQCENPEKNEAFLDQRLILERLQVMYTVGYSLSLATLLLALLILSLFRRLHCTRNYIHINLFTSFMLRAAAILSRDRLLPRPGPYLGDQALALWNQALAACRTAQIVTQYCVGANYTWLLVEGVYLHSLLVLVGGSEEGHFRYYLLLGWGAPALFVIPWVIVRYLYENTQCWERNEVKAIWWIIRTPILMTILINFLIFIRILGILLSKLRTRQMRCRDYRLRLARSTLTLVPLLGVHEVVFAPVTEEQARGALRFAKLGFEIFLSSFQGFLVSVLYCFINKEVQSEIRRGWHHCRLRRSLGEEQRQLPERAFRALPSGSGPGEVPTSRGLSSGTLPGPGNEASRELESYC

| Binder | hGLP1R cAMP EC50 ratio [1] | hGLP1R cAMP Rel EC50 [1] | hGIPR cAMP EC50 ratio [2] | hGIPR cAMP Rel EC50 [2] |
| --- | --- | --- | --- | --- |
| B1 | 0.332 | 175 pM | 0.653 | 277 pM |
| B2 | 0.00739 | 7160 pM | 0.185 | 632 pM |
| B3 | 0.408 | 130 pM | 0.969 | 121 pM |
| B4 | 0.668 | 60.8 pM | 2.41 | 77.5 pM |
| B5 | 1.73 | 28.9 pM | 2.83 | 61.5 pM |
| B6 | 1.6 | 35.6 pM | 2.53 | 64.5 pM |
| B7 | 2.2 | 24.1 pM | 0.158 | 738 pM |
| B8 | 0.702 | 57.7 pM | 4.61 | 37.1 pM |
| B9 | 0.602 | 96.6 pM | 0.936 | 193 pM |
| B10 | 0.205 | 284 pM | 0.427 | 423 pM |
| B11 | 0.359 | 162 pM | 0.538 | 336 pM |
